Measurements as given in the RNAGym collection of RNA variant scans (doi:10.1073/pnas.2313332121).
This sample holds only a part of the variants without activity.

B1: TPR 5TU (parent)
chain: GGAUCUUCUCGAUCUAACAAAAAAGACAAAUCUGCCACAAAGCUUGAGAGCAUCUUCGGAUGCAGAGGCGGCAGCCUUCGGUGGCGCGAUAGCGCCAACGUUCUCAACUAUGACACGCAAAACGCGUGCUCCGUUGAAUGGAGUUUAUCAUG

Variants of: B1
Test: polymerase ribozyme fitness, log enrichment relative to wild type (log ratio); higher = more active; in vitro selection for triplet polymerase activity
Method in brief: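 Streptavidin-bead capture of gel-excised extended constructs, followed by RT-PCR, closed a single triplicate in vitro selection round. That round began by annealing PCR-built, transcribed mutant libraries of each subunit of a heterodimeric triplet polymerase ribozyme with a biotinylated primer, the partner subunit and triplets, then incubating them frozen at −7 °C. After Illumina sequencing of inputs and outputs, genotypes needed ≥10 input reads and ≥1 read per output. Fitness is the base-2 logarithm of genotype enrichment over wild-type enrichment, using inverse-variance-weighted replicate averages.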

Variant	polymerase ribozyme fitness (log ratio)
GGAUCUUCUCGAUCUAACAAAAAAGACAAAUCUGCCACAAAGCUUGAGAGCAUCUUCGGAUGCAGAGGCGGCAGCCUUCGGUGGCGCGAUAGCGCCAACUUUCUCAACUAUGACACGCAAAACGCGUGCUUCGUUGAAUGGAGUUUAUCAUG [G100U C131U]	≤ -4.2
GGAUCUUCUCGAUCUAACAAAAAAGACAAAUCUGCCACAAAGCUUGAGAGCAUCUUCGGAUGCAGAGGCGGCAGCCUUCGGUGGCGCGAUAGCGCCAACUUUCUCAACUAUGACACGCAAAACGCGUGCUCCGUUGAAGGGAGUUGAUCAUG [G100U U139G U146G]	≤ -4.2
GGAUCUUCUCGAUCUAACAAAAAAGACAAAUCUGCCACAAAGCUUGAGAGCAUCUUCGGAUGCAGAGGCGGCAGCCUUCGGUGGCGCGAUAGCGCCAAUGUUCUCAACUAUGACACGCAAAACGCGUGCUCCGUUAAAUGGAGUUUAUCAUG [C99U G136A]	0.0423
GGAUCUUCUCGAUCUAACAAAAAAGACAAAUCUGCCACAAAGCUUGAGAGCAUCUUCGGAUGCAGAGGCGGCAGCCUUCGGUGGCGCGAUAGCGCCAAUGUUCUCAACUAUGACACGCAAAACGCGUGCUCCGUUUAAUGGAGUUUAUCAUG [C99U G136U]	-2.25
GGAUCUUCUCGAUCUAACAAAAAAGACAAAUCUGCCACAAAGCUUGAGAGCAUCUUCGGAUGCAGAGGCGGCAGCCUUCGGUGGCGCGAUAGCGCCAACUGUCUCAACUAUGACACGCAAAACGCGUGCUCCGUUGAAUGGAGUUUAUCAUG [G100U U101G]	-3.34
GGAUCUUCUCGAUCUAACAAAAAAGACAAAUCUGCCACAAAGCUUGAGAGCAUCUUCGGAUGCAGAGGCGGCAGCCUUCGGUGGCGCGAUAGCGCCAACGGUCUCCACUAUGCCACGCAAAGCGCGUGCUCCGUUGAAUGGAGUUUAUCAUG [U101G A106C A113C A122G]	≤ -4.2
GGAUCUUCUCGAUCUAACAAAAAAGACAAAUCUGCCACAAAGCUUGAGAGCAUCUUCGGAUGCAGAGGCGGCAGCCUUCGGUGGCGCGAUAGCGCCAACGAUCUCCACUAUGACACGCAAAACGCGUGCUCCGUUGAAUGGAGUUUGUCAUG [U101A A106C A147G]	-3.14
GGAUCUUCUCGAUCUAACAAAAAAGACAAAUCUGCCACAAAGCUUGAGAGCAUCUUCGGAUGCAGAGGCGGCAGCCUUCGGUGGCGCGAUAGCGCCAACAUUCUCAACUAUGACACGCAAAACGCGUGGUCCGUUGAAUGGAGUUUAUCAUG [G100A C129G]	≤ -4.2
GGAUCUUCUCGAUCUAACAAAAAAGACAAAUCUGCCACAAAGCUUGAGAGCAUCUUCGGAUGCAGAGGCGGCAGCCUUCGGUGGCGCGAUAGCGCCAACGUGCUCAACUAUGACACGCAAAACCCGUGCUCCAUUGGAUGGAUUUUAUCAUG [U102G G124C G133A A137G G143U]	≤ -4.2
GGAUCUUCUCGAUCUAACAAAAAAGACAAAUCUGCCACAAAGCUUGAGAGCAUCUUCGGAUGCAGAGGCGGCAGCCUUCGGUGGCGCGAUAGCGCCAACGGUCUCAACUAUGUCACGCAAAACGCGUGCUCCGUUGAAUGGAGUUUAUCAUG [U101G A113U]	-1.25
GGAUCUUCUCGAUCUAACAAAAAAGACAAAUCUGCCACAAAGCUUGAGAGCAUCUUCGGAUGCAGAGGCGGCAGCCUUCGGUGGCGCGAUAGCGCCAACGCUCUCAACUAUGACACGCAAAACGCGUGCUCAGUUGAAUGGAGUUUAUCAUG [U101C C132A]	-2.05
GGAUCUUCUCGAUCUAACAAAAAAGACAAAUCUGCCACAAAGCUUGAGAGCAUCUUCGGAUGCAGAGGCGGCAGCCUUCGGUGGCGCGAUAGCGCCAACAUUCUCAACUAUGACACGCAAAACGCAUGCUCCGUUGAAUGGAGUUUAUCAUG [G100A G126A]	-4.02
GGAUCUUCUCGAUCUAACAAAAAAGACAAAUCUGCCACAAAGCUUGAGAGCAUCUUCGGAUGCAGAGGCGGCAGCCUUCGGUGGCGCGAUAGCGCCAACGCUCUCAACUAUGACACGCAAAACGCGUGCUCCGUUGAAUGGAGUUUAUCGUG [U101C A150G]	-1.59
GGAUCUUCUCGAUCUAACAAAAAAGACAAAUCUGCCACAAAGCUUGAGAGCAUCUUCGGAUGCAGAGGCGGCAGCCUUCGGUGGCGCGAUAGCGCCAACGUACUCAACUAUGACACGCAAAACGCGUUCUCCGUUGAAUGGAGUUUAUCAUG [U102A G128U]	-4.1
GGAUCUUCUCGAUCUAACAAAAAAGACAAAUCUGCCACAAAGCUUGAGAGCAUCUUCGGAUGCAGAGGCGGCAGCCUUCGGUGGCGCGAUAGCGCCAACGGUCUCAUCUAUGACACGCAAAACGCGUGCUCCGUUGAAUGGAGUUUAUCAUG [U101G A107U]	-3.84
GGAUCUUCUCGAUCUAACAAAAAAGACAAAUCUGCCACAAAGCUUGAGAGCAUCUUCGGAUGCAGAGGCGGCAGCCUUCGGUGGCGCGAUAGCGCCAACCUUCUCAACUAUGACACGCAAAACGCGUGCUCCGUUUAAUGGAGUUGAUCAUG [G100C G136U U146G]	≤ -4.2
GGAUCUUCUCGAUCUAACAAAAAAGACAAAUCUGCCACAAAGCUUGAGAGCAUCUUCGGAUGCAGAGGCGGCAGCCUUCGGUGGCGCGAUAGCGCCAACGUGCUUAACUAUGACACGCAAAACGUGUGCUCCGUUGAAUGGAGUUUAUCCUG [U102G C105U C125U A150C]	-4.12
GGAUCUUCUCGAUCUAACAAAAAAGACAAAUCUGCCACAAAGCUUGAGAGCAUCUUCGGAUGCAGAGGCGGCAGCCUUCGGUGGCGCGAUAGCGCCAAUGUACUCAACUAUGACACGCAAAACGCGUGCUCCGUUGAAUGGAGUUUAUCAUG [C99U U102A]	-1.33
GGAUCUUCUCGAUCUAACAAAAAAGACAAAUCUGCCACAAAGCUUGAGAGCAUCUUCGGAUGCAGAGGCGGCAGCCUUCGGUGGCGCGAUAGCGCCAACGUCCUCAACUAUGACACGCAUAACGCGUGCUCCGUUGAAUCGAGUUUAUCAUG [U102C A120U G140C]	-3.56
